Paper PMC9482650, “Quantitative fragmentomics allow affinity mapping of interactomes” (Nature Communications, 2022)

T1: TJP3_3, O95049
T1 sequence (O95049 375-456, limits assumed, looked up): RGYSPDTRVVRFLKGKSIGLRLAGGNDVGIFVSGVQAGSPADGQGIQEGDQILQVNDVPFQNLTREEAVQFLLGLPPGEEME

T2: SHANK1, Q9Y566
T2 sequence (Q9Y566 658-767, limits assumed, looked up): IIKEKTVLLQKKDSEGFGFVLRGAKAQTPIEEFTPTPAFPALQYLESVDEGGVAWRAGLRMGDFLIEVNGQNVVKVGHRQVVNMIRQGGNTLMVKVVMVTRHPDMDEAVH

T3: SNTB1, Q13884
T3 sequence (Q13884 107-205, limits assumed, looked up): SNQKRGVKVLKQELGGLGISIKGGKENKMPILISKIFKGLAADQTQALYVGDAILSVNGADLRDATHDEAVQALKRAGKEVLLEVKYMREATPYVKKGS

T4: SYNJ2BP, P57105
T4 sequence (P57105 8-110, limits assumed, looked up): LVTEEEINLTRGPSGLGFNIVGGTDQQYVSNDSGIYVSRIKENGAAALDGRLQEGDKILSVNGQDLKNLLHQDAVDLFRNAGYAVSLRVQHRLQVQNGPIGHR

T5: APBA2_2, Q99767
T5 sequence (Q99767 654-744, limits assumed, looked up): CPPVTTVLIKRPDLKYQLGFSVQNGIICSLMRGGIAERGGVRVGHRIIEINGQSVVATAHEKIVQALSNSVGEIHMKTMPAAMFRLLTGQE

T6: CARD11, Q9BXL7
T6 sequence (Q9BXL7 662-765, limits assumed, looked up): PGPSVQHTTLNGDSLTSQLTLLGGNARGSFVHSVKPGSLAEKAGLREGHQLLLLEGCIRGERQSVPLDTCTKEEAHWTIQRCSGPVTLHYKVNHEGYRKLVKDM

T7: APBA3_1, O96018
T7 sequence (O96018 389-490, limits assumed, looked up): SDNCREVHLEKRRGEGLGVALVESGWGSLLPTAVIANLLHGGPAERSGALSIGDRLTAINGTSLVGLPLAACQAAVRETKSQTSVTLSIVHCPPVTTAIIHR

T8: DLG3_1, Q92796
T8 sequence (Q92796 125-227, limits assumed, looked up): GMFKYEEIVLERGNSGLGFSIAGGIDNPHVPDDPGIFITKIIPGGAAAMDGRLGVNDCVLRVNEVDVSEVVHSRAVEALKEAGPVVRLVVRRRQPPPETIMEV

T9: SNTA1, Q13424
T9 sequence (Q13424 82-180, limits assumed, looked up): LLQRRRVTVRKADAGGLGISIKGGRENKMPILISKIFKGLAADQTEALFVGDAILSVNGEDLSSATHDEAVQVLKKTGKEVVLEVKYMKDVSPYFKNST

T10: DVL3, Q92997
T10 sequence (Q92997 244-331, limits assumed, looked up): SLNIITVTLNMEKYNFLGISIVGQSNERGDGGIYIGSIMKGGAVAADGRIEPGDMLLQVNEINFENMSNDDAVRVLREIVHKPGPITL

T11: SIPA1L2, Q9P2F8
T11 sequence (Q9P2F8 945-1036, limits assumed, looked up): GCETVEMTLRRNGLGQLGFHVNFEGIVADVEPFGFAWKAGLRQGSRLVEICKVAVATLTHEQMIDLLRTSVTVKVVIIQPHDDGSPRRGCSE

T12: GRIP1_5, Q9Y3R0
T12 sequence (Q9Y3R0 568-668, limits assumed, looked up): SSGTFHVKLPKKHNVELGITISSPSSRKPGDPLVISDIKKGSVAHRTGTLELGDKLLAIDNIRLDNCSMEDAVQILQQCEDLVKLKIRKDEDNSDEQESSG

T13: PDZD7_3, Q9H5P4
T13 sequence (Q9H5P4 857-944, limits assumed, looked up): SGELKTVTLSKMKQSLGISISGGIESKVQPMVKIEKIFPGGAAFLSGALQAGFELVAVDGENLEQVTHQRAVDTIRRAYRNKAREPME


Molecular target: MAST1, Q9Y2H9
Assay: holdup assay
Parameters: key: below the threshold = too weak to quantify, mostly under pKd 3.1 to 4
Conditions: plain residues with an end cap or a label only (N-terminal biotin on a linker: ado-ado)

MAST1, Q9Y2H9, sequence (Q9Y2H9 962-1065): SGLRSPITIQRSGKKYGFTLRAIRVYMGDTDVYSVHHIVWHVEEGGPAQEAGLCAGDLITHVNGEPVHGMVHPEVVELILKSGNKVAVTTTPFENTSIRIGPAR

| pKd | Binder |
| --- | --- |
| below the threshold | LSEFKAMDSI [CTNNA1, P35221] |

Molecular target: GRID2IP_2, A4D2P6
Assay: holdup assay
Parameters: key: below the threshold = too weak to quantify, mostly under pKd 3.1 to 4
Conditions: plain residues with an end cap or a label only (N-terminal biotin on a linker: ado-ado)

GRID2IP_2, A4D2P6, sequence (A4D2P6 272-370): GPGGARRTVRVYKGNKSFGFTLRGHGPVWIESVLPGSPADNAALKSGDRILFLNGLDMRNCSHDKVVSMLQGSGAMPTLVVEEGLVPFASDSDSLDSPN

| pKd | Binder |
| --- | --- |
| below the threshold | LSEFKAMDSI [CTNNA1, P35221] |

Molecular target: T1, TJP3_3, O95049
Assay: holdup assay
Parameters: key: below the threshold = too weak to quantify, mostly under pKd 3.1 to 4
Conditions: plain residues with an end cap or a label only (N-terminal biotin on a linker: ado-ado)

| pKd | Binder |
| --- | --- |
| below the threshold | LSEFKAMDSI [CTNNA1, P35221] |

Molecular target: T2, SHANK1, Q9Y566
Assay: holdup assay
Parameters: key: below the threshold = too weak to quantify, mostly under pKd 3.1 to 4
Conditions: plain residues with an end cap or a label only (N-terminal biotin on a linker: ado-ado)

| pKd | Binder |
| --- | --- |
| below the threshold | LSEFKAMDSI [CTNNA1, P35221] |

Molecular target: T3, SNTB1, Q13884
Assay: holdup assay
Parameters: key: below the threshold = too weak to quantify, mostly under pKd 3.1 to 4
Conditions: plain residues with an end cap or a label only (N-terminal biotin on a linker: ado-ado)

| pKd | Binder |
| --- | --- |
| below the threshold | LSEFKAMDSI [CTNNA1, P35221] |

Molecular target: T4, SYNJ2BP, P57105
Assay: holdup assay
Parameters: key: below the threshold = too weak to quantify, mostly under pKd 3.1 to 4
Conditions: plain residues with an end cap or a label only (N-terminal biotin on a linker: ado-ado)

| pKd | Binder |
| --- | --- |
| below the threshold | LSEFKAMDSI [CTNNA1, P35221] |

Molecular target: Inadl_4, Q8NI35
Assay: holdup assay
Parameters: key: below the threshold = too weak to quantify, mostly under pKd 3.1 to 4
Conditions: plain residues with an end cap or a label only (N-terminal biotin on a linker: ado-ado)

Inadl_4, Q8NI35, sequence (Q8NI35 547-651): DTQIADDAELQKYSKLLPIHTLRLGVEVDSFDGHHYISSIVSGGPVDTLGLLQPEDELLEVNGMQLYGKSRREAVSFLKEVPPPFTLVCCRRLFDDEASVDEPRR

| pKd | Binder |
| --- | --- |
| below the threshold | LSEFKAMDSI [CTNNA1, P35221] |

Molecular target: Inadl_6, Q8NI35
Assay: holdup assay
Parameters: key: below the threshold = too weak to quantify, mostly under pKd 3.1 to 4
Conditions: plain residues with an end cap or a label only (N-terminal biotin on a linker: ado-ado)

Inadl_6, Q8NI35, sequence (Q8NI35 1058-1167): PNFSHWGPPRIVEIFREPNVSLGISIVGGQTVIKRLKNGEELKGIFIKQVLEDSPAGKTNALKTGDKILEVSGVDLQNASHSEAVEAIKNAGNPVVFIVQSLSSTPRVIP

| pKd | Binder |
| --- | --- |
| below the threshold | LSEFKAMDSI [CTNNA1, P35221] |

Molecular target: DLG5_1, Q8TDM6
Assay: holdup assay
Parameters: key: below the threshold = too weak to quantify, mostly under pKd 3.1 to 4
Conditions: plain residues with an end cap or a label only (N-terminal biotin on a linker: ado-ado)

DLG5_1, Q8TDM6, sequence (Q8TDM6 617-713): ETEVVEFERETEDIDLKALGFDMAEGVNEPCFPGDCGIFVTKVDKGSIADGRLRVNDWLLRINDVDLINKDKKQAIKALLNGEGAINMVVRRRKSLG

| pKd | Binder |
| --- | --- |
| below the threshold | LSEFKAMDSI [CTNNA1, P35221] |

Molecular target: T5, APBA2_2, Q99767
Assay: holdup assay
Parameters: key: below the threshold = too weak to quantify, mostly under pKd 3.1 to 4
Conditions: plain residues with an end cap or a label only (N-terminal biotin on a linker: ado-ado)

| pKd | Binder |
| --- | --- |
| below the threshold | LSEFKAMDSI [CTNNA1, P35221] |

Molecular target: GRIP2_4, Q9C0E4
Assay: holdup assay
Parameters: key: below the threshold = too weak to quantify, mostly under pKd 3.1 to 4
Conditions: plain residues with an end cap or a label only (N-terminal biotin on a linker: ado-ado)

GRIP2_4, Q9C0E4, sequence (Q9C0E4 446-548): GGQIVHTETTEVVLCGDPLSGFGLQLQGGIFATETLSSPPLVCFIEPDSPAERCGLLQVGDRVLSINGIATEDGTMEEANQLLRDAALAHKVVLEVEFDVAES

| pKd | Binder |
| --- | --- |
| below the threshold | LSEFKAMDSI [CTNNA1, P35221] |

Molecular target: T6, CARD11, Q9BXL7
Assay: holdup assay
Parameters: key: below the threshold = too weak to quantify, mostly under pKd 3.1 to 4
Conditions: plain residues with an end cap or a label only (N-terminal biotin on a linker: ado-ado)

| pKd | Binder |
| --- | --- |
| below the threshold | LSEFKAMDSI [CTNNA1, P35221] |

Molecular target: T7, APBA3_1, O96018
Assay: holdup assay
Parameters: key: below the threshold = too weak to quantify, mostly under pKd 3.1 to 4
Conditions: plain residues with an end cap or a label only (N-terminal biotin on a linker: ado-ado)

| pKd | Binder |
| --- | --- |
| below the threshold | LSEFKAMDSI [CTNNA1, P35221] |

Molecular target: DLG1_1, Q12959
Assay: holdup assay
Parameters: key: below the threshold = too weak to quantify, mostly under pKd 3.1 to 4
Conditions: plain residues with an end cap or a label only (N-terminal biotin on a linker: ado-ado)

| pKd | Binder |
| --- | --- |
| below the threshold | LSEFKAMDSI [CTNNA1, P35221] |

Molecular target: MAGI2_5, Q86UL8
Assay: holdup assay
Parameters: key: below the threshold = too weak to quantify, mostly under pKd 3.1 to 4
Conditions: plain residues with an end cap or a label only (N-terminal biotin on a linker: ado-ado)

MAGI2_5, Q86UL8, sequence (Q86UL8 915-1017): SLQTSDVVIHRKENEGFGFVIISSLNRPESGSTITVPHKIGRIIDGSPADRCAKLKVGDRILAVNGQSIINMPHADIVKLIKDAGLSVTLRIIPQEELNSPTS

| pKd | Binder |
| --- | --- |
| below the threshold | LSEFKAMDSI [CTNNA1, P35221] |

Molecular target: PDLIM1, O00151
Assay: holdup assay
Parameters: key: below the threshold = too weak to quantify, mostly under pKd 3.1 to 4
Conditions: plain residues with an end cap or a label only (N-terminal biotin on a linker: ado-ado)

PDLIM1, O00151, sequence (O00151 1-87): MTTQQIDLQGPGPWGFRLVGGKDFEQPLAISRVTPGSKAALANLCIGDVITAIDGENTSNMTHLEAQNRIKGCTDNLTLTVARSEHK

| pKd | Binder |
| --- | --- |
| below the threshold | LSEFKAMDSI [CTNNA1, P35221] |

Molecular target: T8, DLG3_1, Q92796
Assay: holdup assay
Parameters: key: below the threshold = too weak to quantify, mostly under pKd 3.1 to 4
Conditions: plain residues with an end cap or a label only (N-terminal biotin on a linker: ado-ado)

| pKd | Binder |
| --- | --- |
| below the threshold | LSEFKAMDSI [CTNNA1, P35221] |

Molecular target: T9, SNTA1, Q13424
Assay: holdup assay
Parameters: key: below the threshold = too weak to quantify, mostly under pKd 3.1 to 4
Conditions: plain residues with an end cap or a label only (N-terminal biotin on a linker: ado-ado)

| pKd | Binder |
| --- | --- |
| below the threshold | LSEFKAMDSI [CTNNA1, P35221] |

Molecular target: SCRIB_2, Q14160
Assay: holdup assay
Parameters: key: below the threshold = too weak to quantify, mostly under pKd 3.1 to 4
Conditions: plain residues with an end cap or a label only (N-terminal biotin on a linker: ado-ado)

SCRIB_2, Q14160, sequence (Q14160 857-960): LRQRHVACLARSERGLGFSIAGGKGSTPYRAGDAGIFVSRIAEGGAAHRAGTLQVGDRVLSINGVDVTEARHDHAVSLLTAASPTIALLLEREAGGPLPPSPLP

| pKd | Binder |
| --- | --- |
| below the threshold | LSEFKAMDSI [CTNNA1, P35221] |

Molecular target: HTRA1, Q92743
Assay: holdup assay
Parameters: key: below the threshold = too weak to quantify, mostly under pKd 3.1 to 4
Conditions: plain residues with an end cap or a label only (N-terminal biotin on a linker: ado-ado)

HTRA1, Q92743, sequence (Q92743 360-477): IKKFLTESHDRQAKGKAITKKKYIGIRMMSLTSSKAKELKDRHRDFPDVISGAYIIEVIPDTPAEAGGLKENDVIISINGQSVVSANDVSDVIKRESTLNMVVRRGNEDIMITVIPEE

| pKd | Binder |
| --- | --- |
| below the threshold | LSEFKAMDSI [CTNNA1, P35221] |

Molecular target: T10, DVL3, Q92997
Assay: holdup assay
Parameters: key: below the threshold = too weak to quantify, mostly under pKd 3.1 to 4
Conditions: plain residues with an end cap or a label only (N-terminal biotin on a linker: ado-ado)

| pKd | Binder |
| --- | --- |
| below the threshold | LSEFKAMDSI [CTNNA1, P35221] |

Molecular target: MAGI2_6, Q86UL8
Assay: holdup assay
Parameters: key: below the threshold = too weak to quantify, mostly under pKd 3.1 to 4
Conditions: plain residues with an end cap or a label only (N-terminal biotin on a linker: ado-ado)

MAGI2_6, Q86UL8, sequence (Q86UL8 1141-1229): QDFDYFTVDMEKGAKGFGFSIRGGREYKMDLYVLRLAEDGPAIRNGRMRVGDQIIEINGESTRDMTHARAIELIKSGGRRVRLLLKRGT

| pKd | Binder |
| --- | --- |
| below the threshold | LSEFKAMDSI [CTNNA1, P35221] |

Molecular target: T11, SIPA1L2, Q9P2F8
Assay: holdup assay
Parameters: key: below the threshold = too weak to quantify, mostly under pKd 3.1 to 4
Conditions: plain residues with an end cap or a label only (N-terminal biotin on a linker: ado-ado)

| pKd | Binder |
| --- | --- |
| below the threshold | LSEFKAMDSI [CTNNA1, P35221] |

Molecular target: T12, GRIP1_5, Q9Y3R0
Assay: holdup assay
Parameters: key: below the threshold = too weak to quantify, mostly under pKd 3.1 to 4
Conditions: plain residues with an end cap or a label only (N-terminal biotin on a linker: ado-ado)

| pKd | Binder |
| --- | --- |
| below the threshold | LSEFKAMDSI [CTNNA1, P35221] |

Molecular target: T13, PDZD7_3, Q9H5P4
Assay: holdup assay
Parameters: key: below the threshold = too weak to quantify, mostly under pKd 3.1 to 4
Conditions: plain residues with an end cap or a label only (N-terminal biotin on a linker: ado-ado)

| pKd | Binder |
| --- | --- |
| below the threshold | LSEFKAMDSI [CTNNA1, P35221] |
